The values that follow come from the supplement of paper PMC7877785.

± gives the uncertainty stated by the source.

The nature of the data set: self-splicing fitness, log relative to wild type (ln ratio); higher = more splicing; Tetrahymena group I intron in knt gene, E. coli kanamycin selection, DiMSum; sequences stand for … in CUCUCU…GGAGGGAAAAGUUAUCAGGCAUGCACCUGGUAGCUAGUCUUUAAACCAAUAGAUUGCAUCGGUUUAAAAGGCAAGACCGUCAAAUUGCGGGAAAGGGGUCAACAGCCGUUCAGUACCAAGUCUCAGGGGAAACUUUGAGAUGGCCUUGCAAAGGGUAUGGUAAUAAGCUGACGGACAUGGUCCUAACCACGCAGCCAAGUCCUAAGUCAACAGAUCUUCUGUUGAUAUGGAUGCAGUUCACAGACUAAAUGUCGGUCGGGGAAGAUGUAUUCUUCUCAUAAGAUAUAGUCGGACCUCUCCUUAAUGGGAGCUAGCGGAUGAAGUGAUGCAACACUGGAGCCGCUGGGAACUAAUUUGUAUGCGAAAGUAUAUUGAUUAGUUUUGGAGUACUCGUGGUCG
The gist of the method:
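The eight P1ex-region nucleotides of an intron in the knt kanamycin-resistance gene on pET-22b(+) were all randomised and the library put into E. coli BL21(DE3). Six replicate transformations were grown overnight at 37°C or 30°C on LB agar with or without 25 μg/mL kanamycin, together with 100 μg/mL carbenicillin, 50 μM IPTG and 0.2% rhamnose. Colonies were pooled and amplicon-sequenced on an Illumina HiSeq 2500. Fitness from DiMSum is the error-weighted combination of wild-type-normalised replicate fold changes, kanamycin over none.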

Regarding GUUAAGCAAUAUUACGAGCG, the “self-splicing fitness (ln)” value is -1.54 ± 0.11 (30 °C) and -0.685 ± 0.13 (37 °C).
Regarding ACUAAGCAAUAUUACGUGCA, the “self-splicing fitness (ln)” value is -1.37 ± 0.073 (30 °C) and -0.431 ± 0.11 (37 °C).
Taken in the same sequence, the figures for AGACAGCAAUAUUACGGGGA were -3.11 ± 0.17 and -1.82 ± 0.12.
Taken in the same sequence, the figures for UCAUAGCAAUAUUACGAUGG were -3.32 ± 0.19 and -1.3 ± 0.17.
The corresponding values for GACGAGCAAUAUUACGCAUA are -1.6 ± 0.21 and -0.87 ± 0.17.
For the sequence UCUUAGCAAUAUUACGCAUA, the “self-splicing fitness (ln)” value runs as follows: (30 °C) -2.4 ± 0.26; (37 °C) -1.47 ± 0.22.
For the sequence GAGGAGCAAUAUUACGAGGG, the “self-splicing fitness (ln)” value (37 °C) is -1.96 ± 0.41.
With CAUGAGCAAUAUUACGUCCA, the “self-splicing fitness (ln)” value is -2.74 ± 0.33 (30 °C) and -2.28 ± 0.34 (37 °C).
UACCAGCAAUAUUACGCCAA: the “self-splicing fitness (ln)” value runs as follows: (30 °C) -2.05 ± 0.12; (37 °C) -0.589 ± 0.099.
The corresponding values for ACUCAGCAAUAUUACGUAUU are -2.01 ± 0.081 and -0.892 ± 0.11.
The corresponding values for AUGGAGCAAUAUUACGGUCU are -1.54 ± 0.14 and -2.04 ± 0.21.
Consider GAUUAGCAAUAUUACGCGCG, for which the “self-splicing fitness (ln)” value by setting is: (30 °C) -1.03 ± 0.097; (37 °C) -0.745 ± 0.12.
As for CACGAGCAAUAUUACGAUUG, the “self-splicing fitness (ln)” value is, setting by setting: (30 °C) -2.19 ± 0.11; (37 °C) -1.6 ± 0.13.
For the sequence UGAGAGCAAUAUUACGGGGU, where the note is “37 °C”, the “self-splicing fitness (ln)” value was -2.4 ± 0.48.
Take GUCCAGCAAUAUUACGUUAU: the “self-splicing fitness (ln)” value runs as follows: (30 °C) -0.827 ± 0.058; (37 °C) 0.329 ± 0.07.
The corresponding values for CACUAGCAAUAUUACGGCUG are -0.972 ± 0.054 and 0.114 ± 0.065.
Taken in the same sequence, the figures for UAACAGCAAUAUUACGAACA were -0.546 ± 0.072 and 0.297 ± 0.087.
Taken in the same sequence, the figures for GAAAAGCAAUAUUACGCGAA were -2.75 ± 0.2 and -1.13 ± 0.18.
On to UGAAAGCAAUAUUACGGCAU, for which the “self-splicing fitness (ln)” value reads like this: (30 °C) -1.43 ± 0.076; (37 °C) -0.236 ± 0.1.
The corresponding values for ACCUAGCAAUAUUACGAGCU are -0.918 ± 0.075 and -0.237 ± 0.09.
Turning to GCAGAGCAAUAUUACGAGCU, the “self-splicing fitness (ln)” value runs as follows: (30 °C) -4.1 ± 0.42; (37 °C) -1.17 ± 0.26.
Turning to UCCAAGCAAUAUUACGAGAC, under “37 °C”, the “self-splicing fitness (ln)” value was -2.23 ± 0.29.
For the sequence UCACAGCAAUAUUACGCACG, the “self-splicing fitness (ln)” value reads like this: (30 °C) -1.22 ± 0.091; (37 °C) -0.319 ± 0.14.
Taken in the same sequence, the figures for AGGAAGCAAUAUUACGGUUU were -2.13 ± 0.085 and -0.557 ± 0.1.
Taken in the same sequence, the figures for CAUCAGCAAUAUUACGCGUG were -3.13 ± 0.095 and -2.16 ± 0.092.
The corresponding values for GACAAGCAAUAUUACGUCUC are -4.15 ± 0.27 and -1.18 ± 0.19.
As for GAUAAGCAAUAUUACGUGCG, the “self-splicing fitness (ln)” value runs as follows: (30 °C) -0.71 ± 0.083; (37 °C) -0.166 ± 0.13.
The corresponding values for UAUUAGCAAUAUUACGACAA are -0.602 ± 0.17 and -0.127 ± 0.24.
Taken in the same sequence, the figures for CAUUAGCAAUAUUACGGCUA were -2.88 ± 0.29 and -1.47 ± 0.15.
The corresponding values for AAUUAGCAAUAUUACGCUGG are -1.35 ± 0.17 and -1.01 ± 0.2.
Regarding UAUUAGCAAUAUUACGACCU, the “self-splicing fitness (ln)” value by setting is: (30 °C) -1.41 ± 0.16; (37 °C) -0.551 ± 0.15.
As to AAUGAGCAAUAUUACGAAUC, for the setting “37 °C”, the “self-splicing fitness (ln)” value is -1.74 ± 0.3.
With AUUUAGCAAUAUUACGUUGG, the “self-splicing fitness (ln)” value runs as follows: (30 °C) -3.51 ± 0.2; (37 °C) -2.62 ± 0.22.
As for GCGCAGCAAUAUUACGACUU, the “self-splicing fitness (ln)” value is -0.0557 ± 0.087 (30 °C) and 0.099 ± 0.093 (37 °C).
The corresponding values for UUGCAGCAAUAUUACGAAGC are -2.28 ± 0.3 and -0.93 ± 0.36.
AAGGAGCAAUAUUACGCUAA: the “self-splicing fitness (ln)” value was -2.97 ± 0.23 (30 °C) and -1.51 ± 0.2 (37 °C).
The corresponding values for GACUAGCAAUAUUACGCUCA are -0.407 ± 0.1 and -0.306 ± 0.11.
The corresponding values for UUCUAGCAAUAUUACGAUUA are -0.696 ± 0.14 and 0.682 ± 0.12.
As for CAUUAGCAAUAUUACGCCGU, the “self-splicing fitness (ln)” value reads like this: (30 °C) -2.04 ± 0.15; (37 °C) -1.84 ± 0.21.
